Results: US20050049193A1

Target: OB-Rb, full-length (long isoform) leptin receptor expressed on transfected GT1-7 cells (mouse), P48356
Assay: cell-based or functional assay

OB-Rb, full-length (long isoform) leptin receptor expressed on transfected GT1-7 cells (mouse), P48356, sequence (P48356 22-1162): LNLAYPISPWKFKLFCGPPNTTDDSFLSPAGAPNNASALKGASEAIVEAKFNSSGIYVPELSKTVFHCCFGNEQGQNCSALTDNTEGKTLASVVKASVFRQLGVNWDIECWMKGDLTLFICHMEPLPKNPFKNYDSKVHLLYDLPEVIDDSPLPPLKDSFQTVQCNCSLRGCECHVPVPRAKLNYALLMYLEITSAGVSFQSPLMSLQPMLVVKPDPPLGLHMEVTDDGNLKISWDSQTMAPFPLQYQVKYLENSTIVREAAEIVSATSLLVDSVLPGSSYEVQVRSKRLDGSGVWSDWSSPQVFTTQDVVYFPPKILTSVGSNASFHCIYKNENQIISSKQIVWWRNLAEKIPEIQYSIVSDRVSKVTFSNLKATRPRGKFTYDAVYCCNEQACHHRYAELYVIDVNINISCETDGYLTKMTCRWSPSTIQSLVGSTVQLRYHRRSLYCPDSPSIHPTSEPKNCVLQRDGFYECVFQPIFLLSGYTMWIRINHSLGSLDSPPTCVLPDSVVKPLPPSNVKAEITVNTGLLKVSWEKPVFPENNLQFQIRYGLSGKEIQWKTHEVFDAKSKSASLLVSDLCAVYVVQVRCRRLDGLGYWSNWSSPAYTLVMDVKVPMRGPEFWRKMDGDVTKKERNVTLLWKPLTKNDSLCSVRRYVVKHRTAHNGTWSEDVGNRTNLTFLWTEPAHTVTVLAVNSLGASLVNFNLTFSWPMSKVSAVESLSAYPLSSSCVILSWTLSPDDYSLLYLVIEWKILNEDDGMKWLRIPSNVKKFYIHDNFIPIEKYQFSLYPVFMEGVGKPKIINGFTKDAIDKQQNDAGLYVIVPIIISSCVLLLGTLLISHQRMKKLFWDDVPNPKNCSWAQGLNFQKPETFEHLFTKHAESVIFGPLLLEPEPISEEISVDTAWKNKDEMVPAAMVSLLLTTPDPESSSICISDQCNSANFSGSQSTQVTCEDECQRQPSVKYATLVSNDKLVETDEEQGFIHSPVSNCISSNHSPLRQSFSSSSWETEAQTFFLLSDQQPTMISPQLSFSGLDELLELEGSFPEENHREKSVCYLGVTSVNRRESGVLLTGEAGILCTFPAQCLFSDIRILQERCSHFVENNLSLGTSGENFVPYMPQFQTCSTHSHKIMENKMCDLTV

B1: recombinant mouse leptin, P41160 22-167 (ligand)
chain: VPIQKVQDDTKTLIKTIVTRINDISHTQSVSAKQRVTGLDFIPGLHPILSLSKMDQTLAVYQQVLTSLPSQNVLQIANDLENLRDLLHLLAFSKSCSLPQTSGLQKPESLDGVLEASLYSTEVVALSRLQGSLQDILQQLDVSPEC
B1 was tested, and the SEAP activity (HRRE-SEAP reporter in GT1-7 cells) was 11 fold.
